Measurements from FireProtDB (doi:10.1021/bi0512400).
Where “and” joins values, the source holds several entries; their conditions need not be identical. Equal entries are not always repeated.

B1: Alpha-lactalbumin, P00712 (parent)
chain: MMSFVSLLLVGILFHATQAEQLTKCEVFQKLKDLKDYGGVSLPEWVCTAFHTSGYDTQAIVQNNDSTEYGLFQINNKIWCKDDQNPHSRNICNISCDKFLDDDLTDDIVCAKKILDKVGINYWLAHKALCSEKLDQWLCEKL

Variants of: B1
Settings: Capra hircus, pH 7.5, 25 °C, GdnHCl, CD, Tris 20 mM, Ca2+ 10 mM, structure 1HFY, whole UniProt chain shown

Row | Variant | ddG of mutation (higher = less stable) [kJ/mol] | denaturant m value [kcal/mol/M] | unfolding free energy [kJ/mol] | denaturant m value (transition: 3) | unfolding free energy (transition: 3)
1 | MMSFVSLLLVGILFHATQAEQLTKCEVFQKLKDLKDYGGVSLPEWVCTAFHTSGYDTQAIVQNNDSTEYGLFQINNKIWCKDDQNPHSRNICNISCDKFLDDDLTDDIVCAKKILDKVGINYWLAHKALCSEKLDQFLCEKL [W137F] | -0.669 | 3.06 | 43.5 | – | –
2 | MMSFVSLLLVGILFHATQAEQLTKCEVFQKLKDLKDYGGVSLPEFVCTAFHTSGYDTQAIVQNNDSTEYGLFQINNKIWCKDDQNPHSRNICNISCDKFLDDDLTDDIVCAKKILDKVGINYWLAHKALCSEKLDQWLCEKL [W45F] | 10 | 2.81 | 32.8 | 1.65 kcal/mol/M and 1.16 kcal/mol/M | 17.5 kJ/mol and 15.3 kJ/mol
3 | MMSFVSLLLVGILFHATQAEQLTKCEVFQKLKDLKDYGGVSLPEWVCTAFHTSGYDTQAIVQNNDSTEYGLFQINNKIFCKDDQNPHSRNICNISCDKFLDDDLTDDIVCAKKILDKVGINYWLAHKALCSEKLDQWLCEKL [W79F] | 5.31 | 2.65 | 37.5 | 1.51 kcal/mol/M and 1.14 kcal/mol/M | 20.8 kJ/mol and 16.7 kJ/mol
4 | MMSFVSLLLVGILFHATQAEQLTKCEVFQKLKDLKDYGGVSLPEWVCTAFHTSGYDTQAIVQNNDSTEYGLFQINNKIWCKDDQNPHSRNICNISCDKFLDDDLTDDIVCAKKILDKVGINYFLAHKALCSEKLDQWLCEKL [W123F] | 9.5 | 2.8 | 33.3 | – | –
